We go through one molecule from PMC5065627, “LWD–TCP complex activates the morning gene CCA1 in Arabidopsis”.

Data set [1] concerns the target GST-TCP22 (Arabidopsis thaliana, UniProt Q9C7G4 1-375). The data set can be described thus: competition; 20x/40x unlabelled mTBS against labelled TBS; 35 mM KCl, 15 mM HEPES pH 7.5, 0.4 mM EDTA, 6% glycerol, 50 ng/ul poly(dI-dC), 0.05 pmol probe, room temperature, 10 min. The settings on record: protein: recombinant; tags: GST (N-terminal, pET42a); chain copies: 2; blunt.

Data set [2] has as its target GST-TCP20 (Arabidopsis thaliana, UniProt Q9LSD5 1-314). Described as above. The settings on record: protein: recombinant; tags: GST (N-terminal, pET42a); chain copies: 2; blunt.

GST-TCP22, sequence (Q9C7G4 whole entry): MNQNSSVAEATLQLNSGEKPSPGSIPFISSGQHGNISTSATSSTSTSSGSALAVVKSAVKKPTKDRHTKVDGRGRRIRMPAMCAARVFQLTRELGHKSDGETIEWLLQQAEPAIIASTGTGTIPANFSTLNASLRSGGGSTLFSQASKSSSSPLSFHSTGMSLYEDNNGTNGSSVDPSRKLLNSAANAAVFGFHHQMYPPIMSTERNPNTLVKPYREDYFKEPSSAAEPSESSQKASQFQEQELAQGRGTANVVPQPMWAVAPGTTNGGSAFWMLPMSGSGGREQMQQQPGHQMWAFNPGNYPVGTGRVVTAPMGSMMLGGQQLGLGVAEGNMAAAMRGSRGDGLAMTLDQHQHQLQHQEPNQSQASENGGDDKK
GST-TCP20, sequence (Q9LSD5 whole entry): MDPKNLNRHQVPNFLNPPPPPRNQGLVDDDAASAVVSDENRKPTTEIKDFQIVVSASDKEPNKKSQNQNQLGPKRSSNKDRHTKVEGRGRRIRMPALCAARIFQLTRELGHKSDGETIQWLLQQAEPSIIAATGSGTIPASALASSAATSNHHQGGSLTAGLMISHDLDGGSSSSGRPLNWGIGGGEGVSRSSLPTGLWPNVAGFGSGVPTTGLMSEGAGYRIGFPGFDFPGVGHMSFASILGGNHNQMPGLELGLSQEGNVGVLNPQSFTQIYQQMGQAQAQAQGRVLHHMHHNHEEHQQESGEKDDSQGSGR

B1: mTBS 50-bp CCA1 promoter competitor (dsDNA)
DNA 1: GAGATTAACGATCTTAAGTATTGAAACATAGATCAAGATATTATAACGAA
DNA 2: TTCGTTATAATATCTTGATCTATGTTTCAATACTTAAGATCGTTAATCTC
Consider B1, for which the binding result in data set [1] and in data set [2] was “no binding” each time.
